Reference: publication PMC8368996 (2021)
Like-named read-outs stand apart in the source and are kept apart here. Ends that are not written are not given here. Oregon Green 488 maleimide = Oregon Green 488 maleimide fluorescent label attached to the N-terminal cysteine

B1: NEDD4L WW2 domain (domain or fragment)
chain: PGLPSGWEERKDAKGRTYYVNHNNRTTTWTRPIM
B2: NEDD4L WW1 domain (domain or fragment)
chain: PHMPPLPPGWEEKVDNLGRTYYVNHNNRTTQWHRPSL
B3: NEDD4L WW3 domain (domain or fragment)
chain: KVTQSFLPPGWEMRIAPNGRPFFIDHNTKTTTWEDPRLKFPVHMRSK
B4: NEDD4L WW4 domain (domain or fragment)
chain: GPLPPGWEERIHLDGRTFYIDHNSKITQWEDPRL

Key:
Assay in all cases: FP
[1] = biological target: B3
[2] = biological target: B4
[3] = biological target: B2
[4] = biological target: B1
[5] = biological target: PPxYc
Target sequence in this assay (Q96PU5 385-418): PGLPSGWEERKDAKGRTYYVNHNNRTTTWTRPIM

[6] = biological target: B3; remark: listed apart in the source
[7] = biological target: PPxYc; remark: listed apart in the source
Target sequence in this assay (Q96PU5 other isoform, or with tags, fused parts or gaps): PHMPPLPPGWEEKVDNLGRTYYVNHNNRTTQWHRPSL

[8] = biological target: PPxYc; remark: listed apart in the source
[9] = biological target: PPxYc; remark: listed apart in the source

Row | Binder | Kd [2] | Kd [3] | Kd [4] | Kd [6] | other results
1 | C(Oregon Green 488 maleimide)MEHRGPPPEYPFKGM [AMOT PPxY2 peptide (residues 233-247), Oregon Green 488-labelled] | 210 µM | 49 µM | 30 µM | – | Kd [1]: 28 µM
2 | B1 | – | – | – | – | Kd [5]: > 800 µM
3 | C(Oregon Green 488 maleimide)MQNNEELPTYEEAKV [AMOT PPxY1 peptide (residues 100-114), Oregon Green 488-labelled] | 60 µM | 180 µM | 34 µM | 6.3 µM | –
4 | B2 | – | – | – | – | Kd [7]: > 400 µM
5 | C(Oregon Green 488 maleimide)LMRYQHPPEYGAARP [AMOT PPxY3 peptide (residues 278-292), Oregon Green 488-labelled] | > 400 µM | > 400 µM | 280 µM | – | Kd [1]: 100 µM
6 | C(Oregon Green 488 maleimide)MQNNEEPPTYEEAKV [AMOT PPxY1 L106P mutant peptide] | – | – | – | 6.7 µM | –
7 | C(Oregon Green 488 maleimide)MEHRGPLPEYPFKGM [AMOT PPxY2 P239L mutant peptide] | – | – | – | 78 µM | –
8 | B3 | – | – | – | – | Kd [8]: > 250 µM
9 | B4 | – | – | – | – | Kd [9]: > 400 µM
